From article PMC9221696

B1: wild-type Fas receptor (Fas/CD95) tagged with mCerulean3 or mVenus [human] / itself (parent)
chain: QVTDINSKGLELRKTVTTVETQNLEGLHHDGQFCHKPCPPGERKARDCTVNGDEPDCVPCQEGKEYTDKAHFSSKCRRCRLCDEGHGLEVEINCTRTQNTKCRCKPNFFCNSTVCEHCDPCTKCEHGIIKECTLTSNTKCKEEGSRSNLGWLCLLLLPIPLIVWVKRKEVQKTCRKHRKENQGSHESPTLNPETVAINLSDVDLSKYITTIAGVMTLSQVKGFVRKNGVNEAKIDEIKNDNVQDTAEQKVQLLRNWHQLHGKKEAYDTLIKDLKKANLCTLAEKIQTIILKDITSDSENSNFRNEIQSLV

Variants of: B1
Assay: flow-cytometric FRET (mCerulean3/mVenus) in live cells
Conditions: with itself, RapoC2 (Fas-deficient Jurkat) cells, 24 h post-transfection, read off a plot

| Variant | screen value (FasL-LZ 5 min, parent: 1.5) | screen value (FasL-LZ 15 min, parent: 1.9) | screen value (FasL-LZ 30 min, parent: 2) | screen value (FasL-LZ 60 min, parent: 1.9) | screen value (FasL-LZ 120 min, parent: 1.9) |
| --- | --- | --- | --- | --- | --- |
| QVTDINSKGLELRKTVTTVETQNLEGLHHDGQFCHKPCPPGERKARDCTVNGDEPDCVPCQEGKEYTDKAHFSSKCRRCRLCDEGHGLEVEINCTRTQNTKCRCKPNFFCNSTVCEHCDPCTKCEHGIIKECTLTSNTKCKEEGSRSNLGWLCLLLLPIPLIVWVKRKEVQKTVRKHRKENQGSHESPTLNPETVAINLSDVDLSKYITTIAGVMTLSQVKGFVRKNGVNEAKIDEIKNDNVQDTAEQKVQLLRNWHQLHGKKEAYDTLIKDLKKANLCTLAEKIQTIILKDITSDSENSNFRNEIQSLV [chain 1 C174V] | 1.5 | 1.9 | 2.1 |  |  |
| QVTDINSKGLELRKTVTTVETQNLEGLHHDGQFCHKPCPPGERKARDCTVNGDEPDCVPCQEGKEYTDKAHFSSKCRRCRLCDEGHGLEVEINCTRTQNTKCRCKPNFFCNSTVCEHCDPCTKCEHGIIKECTLTSNTKCKEEGSRSNLGWLCLLLLPIPLIVWVKRKEVQKTCRKHRKENQGSHESPTLNPETVAINLSDVDLSKYITTIAGVMTLSQVKGFVRKNGVNEAKIDKIKNDNVQDTAEQKVQLLRNWHQLHGKKEAYDTLIKDLKKANLCTLAEKIQTIILKDITSDSENSNFRNEIQSLV [chain 1 E236K] | 1.3 | 1.5 | 1.6 | 1.6 | 1.6 |
| QVTDINSKGLELRKTVTTVETQNLEGLHHDGQFCHKPCPPGERKARDCTVNGDEPDCVPCQEGKEYTDKAHFSSKCRRCRLCDEGHGLEVEINCTRTQNTKCRCKPNFFCNSTVCEHCDPCTKCEHGIIKECTLTSNTKCKEEGSRSNLGWLCLLLLPIPLIVWVKRKEVQKTCRKHRKENQGSHESPTLNPETVAINLSDVDLSKYITTIAGVMTLSQVKGFVRKNGVNEDKIDEIKNDNVQDTAEQKVQLLRNWHQLHGKKEAYDTLIKDLKKANLCTLAEKIQTIILKDITSDSENSNFRNEIQSLV [chain 1 A232D] | 1.3 | 1.5 | 1.6 | 1.6 | 1.6 |
